{"source": "paper PMC7611338", "about": "(Current biology : CB, 2021)", "molecular_target": "the molecule itself", "assay": "fluorescence correlation spectroscopy", "data": [{"protein": "dE-cad^WT::GFP (Drosophila E-cadherin, wild type, GFP-tagged) (natural protein) PGQSYAIIVRAYNVVPDPPQDAQIEVRIRVVESSIKPPSFVNPIDTPIYLKENLKNFTHPIATLRAVSNMPDKPEVIFELNTGRTEQTNSKNTFVFNQIGNEVTISLGKTLDYEAITDYTLTMIVRNTHELGTEHQIKIQVEDVNDNIPYYTEVKSGTILENEPPGTPVMQVRAFDMDGTSANNIVSFELADNREYFTIDPNTGNITALTTFDREERDFYNVKVIASDNSPSSLFDNGEPNRGHQVFRISIGDKNDHKPHFQQDKYLAERLLEDANTNTEVIEVKAEDEDNASQILYSIESGNVGDAFKIGLKTGKITVNQKLDYETITEYELKVRAFDGIYDDYTTVVIKIEDVNDNPPVFKQDYSVTILEETTYDDCILTVEAYDPDIKDRNADQHIVYSIHQNDGNRWTIDNSGCLRLVKTLDRDPPNGHKNWQVLIKANDEDGVGTTVSTVKEVTVTLKDINDNAPFLINEMPVYWQENRNPGHVVQLQANDYDDTPGAGNFTFGIDSEATPDIKTKFSMDGDYLHANVQFDREAQKEYFIPIRISDSGVPRQSAVSILHLVIGDVNDNAMSEGSSRIFIYNYKGEAPETDIGRVFVDDLDDWDLEDKYFEWKDLPHDQFRLNPSTGMITMLVHTAEGEYDLSFVVTEDSMFVPRHSVDAYVTVVVRELPEEAVDKSGSIRFINVTKEEFISVPRDFQSPDALSLKDRLQLSLAKLFNTSVSNVDVFTVLQNENHTLDVRFSAHGSPYYAPEKLNGIVAQNQQRLENELDLQMLMVNIDECLIEKFKCEESCTNELHKSSVPYMIYSNTTSFVGVNAFVQAQCVCEAPLMRRCLNGGSPRYGENDVCDCIDGFTGPHCELVSVAFYGSGYAFYEPIAACNNTKISLEITPQIDQGLIMYLGPLNFNPLLAISDFLALELDNGYPVLTVDYGSGAIRIRHQHIKMVADRTYQLDIILQRTSIEMTVDNCRLSTCQTLGAPIGPNEFLNVNAPLQLGGTPVDLEQLGRQLNWTHVPNQKGFFGCIRNLTINEQTYNLGMPSVFRNIDSGCQQSVAVAFSFGIDRNFIIAIIVCLALLLIILLAVVVQKKQKNGWHEKDIDDIRETIINYEDEGGGERDTDYDLNVLRTQPFYEEKLYKDPHALQGNMRDPNDIPDIADFLGDKKENCDRDVGATTVDDVRHYAYEGDGNSDGSLSSLASCTDDGDLNFDYLSNFGPRFRKLADMYGEEPSDTDSNVDDDQGWRI", "values": [{"measurement": "stoichiometry N", "result": "~4"}]}]}
